koff, Kd and kon data for 12 molecules are collected here from patent US20240368267A1 (KODIAK SCIENCES, published 2024).

Assay [1] addresses T1, recombinant human IL-6 (human, UniProt P05231 30-212).
T1 construct: bought protein; also called interleukin-6
Briefly: Biacore, Fab lysate over IL-6 chip, 25 C. On the procedure: Fab libraries were constructed containing random single point mutations for all 71 CDR positions, excluding substitutions for Cys, Met and Asn due to the chemical liabilities associated with these amino acids. Small-scale expression in 96 well plates format was utilized for screening the Fab libraries. E. coli colonies (TG1 cells, Zymo Research) containing randomized single point mutations were picked into 96 well plates (1.5 mL) and grown overnight at 30° C. in LB Amp+2% glucose. A separate 96 well plate was created on the following day by removing 100 μL of culture and adding 100 μL of 30% glycerol, then stored at −80° C. The remaining culture was spun down for 20 min and later resuspended in 1.5 mL of LB Amp containing 1 mM IPTG for induction of protein expression at 30° C. After 5 hours, cells were spun down, resuspended in 500 μL of HBS-EP+ buffer and lysed by one freeze/thaw cycle. Lysates were centrifuged for 30 minutes and vacuum filtered (200 μL) into round bottom 96 well plates for Biacore analysis.
Three ranges of antigen density (100-150 RU, 300-400 RU, 400-600 RU) were obtained by using variable flow times for each chip channel, later blocked with ethanolamine. Supernatants of the 96-well filtered culture lysates were injected at […] for 120 seconds. Fitting of dissociation curves (300 seconds) to single exponential decay curve was used for the determination of dissociation rates (koff). Chip surfaces were regenerated with 10 mM Glycine pH 1.7 solution injected at 50 μL/min during 60 seconds after every cycle of sample binding and dissociation.
In general terms: In SPR one partner is held on a chip, and binding of the other changes the refractive index at the surface.

Assay [2] addresses T2, human IL-6 (human, UniProt P05231 30-212).
T2 construct: also called interleukin-6
Briefly: SPR (Biacore T200), antibody from cell supernatant captured on Protein A, IL-6 flowed over, 37 C.

For assay [3], the target named is T2, human IL-6. Briefly: SPR (Biacore T200), purified antibody captured on Protein A, IL-6 flowed over, 37 C. On the procedure:
Antibodies were captured on a Protein A chip (GE) by injecting 1:20 cell supernatant dilutions at 10 μL/min for 60 seconds. […] The sensor chip was regenerated by a 60 seconds injection of 10 mM Glycine pH 1.7 at the flow rate of […]. […] For this setup, 1 μg/mL of purified antibody was injected over a Protein A chip at 10 μL/min for 25 seconds. […] The sensor chip was regenerated by a 60 seconds injection of 10 mM Glycine pH 1.7 at flow rate of 50 μL/min. Data analysis for supernatant and purified samples were performed using BIAevaluation software (GE). All sensorgrams were double reference subtracted and fit using a 1:1 Langmuir binding model.

T2 sequence (P05231 30-212 limits assumed): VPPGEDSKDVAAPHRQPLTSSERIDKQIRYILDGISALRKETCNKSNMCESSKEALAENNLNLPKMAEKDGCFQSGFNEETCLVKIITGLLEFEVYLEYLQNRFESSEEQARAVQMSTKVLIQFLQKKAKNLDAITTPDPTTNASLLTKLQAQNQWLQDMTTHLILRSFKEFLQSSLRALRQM
T1 sequence (P05231 30-212 limits assumed): as above

B1: anti-IL-6 Fab, heavy chain A105K (Fab, V domains shown)
VH: EVQLVESGGGLVQPGGSLRLSCAASGFTFSPFAMSWVRQAPGKGLEWVAKISPGGSWTYYSDTVTGRFTFSLDTSKSTAYLQMNSLRAEDTAVYYCARQLWGYYKLDIWGQGTLVTVSS
VL: DIQLTQSPSSLSASVGDRVTITCSASISVSYMYWYQQKPGKAPKLLIYDMSNLASGVPSRFSGSGSGTDFTLTISSLQPEDFATYYCMQWSGYPYTFGQGTKVEIK
notes: built as m22 plus the named change
Turning to B1, the dissociation rate constant (koff) in assay [1] amounted to 0.00401 s⁻¹.

B2: anti-IL-6 antibody, heavy chain G66D / light chain WT (antibody, human IgG1, V domains shown)
VH: EVQLVESGGGLVQPGGSLRLSCAASGFTFSPFAMSWVRQAPGKGLEWVAKISPGGSWTYYSDTVTDRFTFSLDTSKSTAYLQMNSLRAEDTAVYYCARQLWGYYALDIWGQGTLVTVSS
VL: DIQLTQSPSSLSASVGDRVTITCSASISVSYMYWYQQKPGKAPKLLIYDMSNLASGVPSRFSGSGSGTDFTLTISSLQPEDFATYYCMQWSGYPYTFGQGTKVEIK
notes: Derived as m2; Engineered human IgG1
As to B2, in assay [2], binding was put at a Kd of 0.215 nM, the koff was 0.000392 s⁻¹ and the kon worked out at 1.83e+06 M⁻¹ s⁻¹. In assay [3], this molecule yielded a Kd of 0.113 nM, a koff of 0.000178 s⁻¹ and a kon of 1.57e+06 M⁻¹ s⁻¹.

B3: anti-IL-6 Fab, heavy chain Q99A (Fab, V domains shown)
VH: EVQLVESGGGLVQPGGSLRLSCAASGFTFSPFAMSWVRQAPGKGLEWVAKISPGGSWTYYSDTVTGRFTFSLDTSKSTAYLQMNSLRAEDTAVYYCARALWGYYALDIWGQGTLVTVSS
VL: DIQLTQSPSSLSASVGDRVTITCSASISVSYMYWYQQKPGKAPKLLIYDMSNLASGVPSRFSGSGSGTDFTLTISSLQPEDFATYYCMQWSGYPYTFGQGTKVEIK
notes: as for B1
For the molecule B3, the koff in assay [1] was 0.00385 s⁻¹.

B4: anti-IL-6 antibody, heavy chain T63K, G66D / light chain WT (antibody, human IgG1, V domains shown)
VH: EVQLVESGGGLVQPGGSLRLSCAASGFTFSPFAMSWVRQAPGKGLEWVAKISPGGSWTYYSDKVTDRFTFSLDTSKSTAYLQMNSLRAEDTAVYYCARQLWGYYALDIWGQGTLVTVSS
VL: DIQLTQSPSSLSASVGDRVTITCSASISVSYMYWYQQKPGKAPKLLIYDMSNLASGVPSRFSGSGSGTDFTLTISSLQPEDFATYYCMQWSGYPYTFGQGTKVEIK
notes: as for B2
B4: in assay [2], binding was characterised by a dissociation constant (Kd) of 0.185 nM, the koff worked out at 0.000461 s⁻¹ and the kon is 2.49e+06 M⁻¹ s⁻¹. Also, in assay [3], the Kd worked out at 0.161 nM, the koff was 0.000235 s⁻¹ and the kon came to 1.46e+06 M⁻¹ s⁻¹.

B5: anti-IL-6 antibody, heavy chain T63E, G66D / light chain WT (antibody, human IgG1, V domains shown)
VH: EVQLVESGGGLVQPGGSLRLSCAASGFTFSPFAMSWVRQAPGKGLEWVAKISPGGSWTYYSDEVTDRFTFSLDTSKSTAYLQMNSLRAEDTAVYYCARQLWGYYALDIWGQGTLVTVSS
VL: DIQLTQSPSSLSASVGDRVTITCSASISVSYMYWYQQKPGKAPKLLIYDMSNLASGVPSRFSGSGSGTDFTLTISSLQPEDFATYYCMQWSGYPYTFGQGTKVEIK
notes: as for B2
In assay [2], B5 came in with a Kd of 0.178 nM, a koff of 0.000464 s⁻¹ and an association rate constant (kon) of 2.61e+06 M⁻¹ s⁻¹. In assay [3], this molecule came in with a Kd of 0.147 nM, a koff of 0.000252 s⁻¹ and a kon of 1.72e+06 M⁻¹ s⁻¹.

B6: anti-IL-6 antibody, heavy chain T65Q, G66D / light chain WT (antibody, human IgG1, V domains shown)
VH: EVQLVESGGGLVQPGGSLRLSCAASGFTFSPFAMSWVRQAPGKGLEWVAKISPGGSWTYYSDTVQDRFTFSLDTSKSTAYLQMNSLRAEDTAVYYCARQLWGYYALDIWGQGTLVTVSS
VL: DIQLTQSPSSLSASVGDRVTITCSASISVSYMYWYQQKPGKAPKLLIYDMSNLASGVPSRFSGSGSGTDFTLTISSLQPEDFATYYCMQWSGYPYTFGQGTKVEIK
notes: as for B2
In assay [2], B6 gave a Kd of 0.158 nM, a koff of 0.000517 s⁻¹ and a kon of 3.28e+06 M⁻¹ s⁻¹. In assay [3], the Kd was 0.148 nM, the koff was 0.000262 s⁻¹ and the kon was 1.77e+06 M⁻¹ s⁻¹.

B7: anti-IL-6 Fab, heavy chain A105Q (Fab, V domains shown)
VH: EVQLVESGGGLVQPGGSLRLSCAASGFTFSPFAMSWVRQAPGKGLEWVAKISPGGSWTYYSDTVTGRFTFSLDTSKSTAYLQMNSLRAEDTAVYYCARQLWGYYQLDIWGQGTLVTVSS
VL: DIQLTQSPSSLSASVGDRVTITCSASISVSYMYWYQQKPGKAPKLLIYDMSNLASGVPSRFSGSGSGTDFTLTISSLQPEDFATYYCMQWSGYPYTFGQGTKVEIK
notes: as for B1
Turning to B7, the koff in assay [1] worked out at 0.00378 s⁻¹.

B8: anti-IL-6 antibody, heavy chain S35H, G66D / light chain WT (antibody, human IgG1, V domains shown)
VH: EVQLVESGGGLVQPGGSLRLSCAASGFTFSPFAMHWVRQAPGKGLEWVAKISPGGSWTYYSDTVTDRFTFSLDTSKSTAYLQMNSLRAEDTAVYYCARQLWGYYALDIWGQGTLVTVSS
VL: DIQLTQSPSSLSASVGDRVTITCSASISVSYMYWYQQKPGKAPKLLIYDMSNLASGVPSRFSGSGSGTDFTLTISSLQPEDFATYYCMQWSGYPYTFGQGTKVEIK
notes: as for B2
In assay [2], B8 came in with a Kd of 0.136 nM, a koff of 0.000397 s⁻¹ and a kon of 2.92e+06 M⁻¹ s⁻¹. For the same molecule, in assay [3], the Kd was 0.105 nM, the koff worked out at 0.000185 s⁻¹ and the kon turned out to be 1.77e+06 M⁻¹ s⁻¹.

B9: anti-IL-6 antibody, heavy chain T65Y, G66D / light chain WT (antibody, human IgG1, V domains shown)
VH: EVQLVESGGGLVQPGGSLRLSCAASGFTFSPFAMSWVRQAPGKGLEWVAKISPGGSWTYYSDTVYDRFTFSLDTSKSTAYLQMNSLRAEDTAVYYCARQLWGYYALDIWGQGTLVTVSS
VL: DIQLTQSPSSLSASVGDRVTITCSASISVSYMYWYQQKPGKAPKLLIYDMSNLASGVPSRFSGSGSGTDFTLTISSLQPEDFATYYCMQWSGYPYTFGQGTKVEIK
notes: as for B2
In assay [2], B9 displayed a Kd of 0.224 nM, a koff of 0.000361 s⁻¹ and a kon of 1.61e+06 M⁻¹ s⁻¹.

B10: anti-IL-6 antibody, heavy chain T63Q, G66D / light chain WT (antibody, human IgG1, V domains shown)
VH: EVQLVESGGGLVQPGGSLRLSCAASGFTFSPFAMSWVRQAPGKGLEWVAKISPGGSWTYYSDQVTDRFTFSLDTSKSTAYLQMNSLRAEDTAVYYCARQLWGYYALDIWGQGTLVTVSS
VL: DIQLTQSPSSLSASVGDRVTITCSASISVSYMYWYQQKPGKAPKLLIYDMSNLASGVPSRFSGSGSGTDFTLTISSLQPEDFATYYCMQWSGYPYTFGQGTKVEIK
notes: as for B2
In assay [2], B10 registered a Kd of 0.203 nM, a koff of 0.000408 s⁻¹ and a kon of 2.01e+06 M⁻¹ s⁻¹. In assay [3], the Kd was 0.193 nM, the koff came to 0.000251 s⁻¹ and the kon was found to be 1.3e+06 M⁻¹ s⁻¹.

B11: anti-IL-6 antibody, heavy chain WT / light chain WT (antibody, human IgG1, V domains shown)
VH: EVQLVESGGGLVQPGGSLRLSCAASGFTFSPFAMSWVRQAPGKGLEWVAKISPGGSWTYYSDTVTGRFTFSLDTSKSTAYLQMNSLRAEDTAVYYCARQLWGYYALDIWGQGTLVTVSS
VL: DIQLTQSPSSLSASVGDRVTITCSASISVSYMYWYQQKPGKAPKLLIYDMSNLASGVPSRFSGSGSGTDFTLTISSLQPEDFATYYCMQWSGYPYTFGQGTKVEIK
notes: Full antibody on an engineered human IgG1 framework, Fc with L234A, L235A, G237A and L443C (EU numbering), expressed in Expi293 cells; also called wild-type; parent molecule
Turning to B11, in assay [2], the Kd turned out to be 0.381 nM, the koff was 0.000255 s⁻¹ and the kon was determined as 670000 M⁻¹ s⁻¹. In addition, in assay [3], the Kd was 0.226 nM, the koff was 0.000128 s⁻¹ and the kon turned out to be 565000 M⁻¹ s⁻¹.

B12: anti-IL-6 Fab, heavy chain L100Q (Fab, V domains shown)
VH: EVQLVESGGGLVQPGGSLRLSCAASGFTFSPFAMSWVRQAPGKGLEWVAKISPGGSWTYYSDTVTGRFTFSLDTSKSTAYLQMNSLRAEDTAVYYCARQQWGYYALDIWGQGTLVTVSS
VL: DIQLTQSPSSLSASVGDRVTITCSASISVSYMYWYQQKPGKAPKLLIYDMSNLASGVPSRFSGSGSGTDFTLTISSLQPEDFATYYCMQWSGYPYTFGQGTKVEIK
notes: as for B1
As for B12, in assay [1], the koff came out at 0.00245 s⁻¹.

Broadly, the koff is a measure of how fast the partners let go of each other. By Kd is commonly meant the concentration at which binding is half-saturated. In general, kon refers to the rate constant with which the complex forms. Low values mean slow association, high ones fast association.
